Data: patent publication US20100136006A1

Assays:
[1] = biological target: CSF1 (colony stimulating factor 1 ligand) (UniProt P09603); assay: cell-based or functional assay
[2] = biological target: IL34 (interleukin 34 ligand) (UniProt Q6ZMJ4); assay: cell-based or functional assay
Chain of UniProt Q6ZMJ4 (Q6ZMJ4 21-242 limits assumed): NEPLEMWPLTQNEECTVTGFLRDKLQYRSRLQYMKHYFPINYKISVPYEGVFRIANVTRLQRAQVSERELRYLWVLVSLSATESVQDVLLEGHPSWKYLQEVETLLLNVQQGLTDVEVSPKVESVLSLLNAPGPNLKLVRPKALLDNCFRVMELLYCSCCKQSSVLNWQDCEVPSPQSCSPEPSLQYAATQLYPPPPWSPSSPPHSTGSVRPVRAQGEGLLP

Chain of UniProt P09603 (P09603 33-190 limits assumed): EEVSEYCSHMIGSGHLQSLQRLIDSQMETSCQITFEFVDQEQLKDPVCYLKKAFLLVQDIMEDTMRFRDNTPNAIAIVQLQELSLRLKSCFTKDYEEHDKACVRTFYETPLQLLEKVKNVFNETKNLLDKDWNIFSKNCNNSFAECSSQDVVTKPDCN

hCSF1R-ECD.506-Fc (Fc fusion)
IC50 for inhibition of CSF1-induced monocyte proliferation [1]: 1.5 nM | IC50 for inhibition of IL34-induced monocyte proliferation [2]: 0.27 nM
